B1: Wild-type E. coli GroES, 15N-labeled form (native heptamer) (natural protein)
chain: MNIRPLHDRVIVKRKEVETKSAGGIVLTGSAAAKSTRGEVLAVGNGRILENGEVKPLDVKVGDIVIFNDGYGVKSEKIDNEEVLIMSESDILAIVEA
modifications: uniformly 15N-labeled
notes: GroES co-chaperonin of Escherichia coli, wild type; concentrations are of the heptamer; also called 15N-labeled GroES; P (protein); source: E. coli BL21(DE3), expression plasmid pETESwild, purified as described previously
B2: single-ring mutant (SR1) of GroEL (R452E, E461A, S463A and V464A) (natural protein, E. coli, UniProt P0A6F5 1-548, looked up)
chain: MAAKDVKFGNDARVKMLRGVNVLADAVKVTLGPKGRNVVLDKSFGAPTITKDGVSVAREIELEDKFENMGAQMVKEVASKANDAAGDGTTTATVLAQAIITEGLKAVAAGMNPMDLKRGIDKAVTAAVEELKALSVPCSDSKAIAQVGTISANSDETVGKLIAEAMDKVGKEGVITVEDGTGLQDELDVVEGMQFDRGYLSPYFINKPETGAVELESPFILLADKKISNIREMLPVLEAVAKAGKPLLIIAEDVEGEALATLVVNTMRGIVKVAAVKAPGFGDRRKAMLQDIATLTGGTVISEEIGMELEKATLEDLGQAKRVVINKDTTTIIDGVGEEAAIQGRVAQIRQQIEEATSDYDREKLQERVAKLAGGVAVIKVGAATEVEMKEKKARVEDALHATRAAVEEGVVAGGGVALIRVASKLADLRGQNEDQNVGIKVALRAMEAPLEQIVLNCGEAPAAVANTVKGGDGNYGYNAATEEYGNMIDMGILDPTKVTRSALQYAASVAGLMITTECMVTDLPKNDAADLGAAGGMGGMGGMGGMM
notes: GroEL chaperonin of Escherichia coli with four mutations at the contact sites between the two rings, forming a single heptameric ring; Non-labeled; heptameric single ring; concentrations are of the heptamer; The PDB entries hold the wild-type double-ring parent; also called L (ligand); heptameric SR1; source: expression plasmid constructed from pEL-WT; expressed and purified as described …

Common to all, as to conditions: both partners purified
The target of assay [1] is B2. The assay is described as follows: NMR titration; 1H-15N HSQC of 21.4 uM 15N-labeled GroES with 0-42 uM SR1 (separate samples); 25°C; 3 mM ATP, 20 mM Tris-HCl, 100 mM KCl, 10 mM MgCl2, pH 7.5, 10% D2O; fit to single-step 1:1 binding (Eq 6).
The target of assay [2] is B2. In words: NMR titration; 1H-15N HSQC of 21.4 uM 15N-labeled GroES with 0-42 uM SR1 (separate samples); 30°C; 3.0 mM ADP, 20 mM Tris-HCl, 100 mM KCl, 10 mM MgCl2, pH 7.5, 10% D2O; fit to single-step 1:1 binding (Eq 6).
Assay [3] deals with B2. In words: NMR titration; 1H-15N HSQC of 21.4 uM 15N-labeled GroES with 0-42 uM SR1 (separate samples); 20°C; 3.0 mM ADP, 20 mM Tris-HCl, 100 mM KCl, 10 mM MgCl2, pH 7.5, 10% D2O; fit to single-step 1:1 binding (Eq 6).
Assay [4] addresses B2. The assay is described as follows: NMR titration; 1H-15N HSQC of 21.4 uM 15N-labeled GroES with 0-42 uM SR1 (separate samples); 25°C; 3.0 mM ADP, 20 mM Tris-HCl, 100 mM KCl, 10 mM MgCl2, pH 7.5, 10% D2O; fit to single-step 1:1 binding (Eq 6).
Assay [5] deals with B1. The assay is described as follows: NMR titration; van't Hoff plot of the Kb values from the NMR titrations at 20, 25 and 30°C; 3.0 mM ADP, 100 mM KCl, 10 mM MgCl2, pH 7.5.

As to B1, the Ka amounted to 2.35e+06 M⁻¹ in assay [1], 223000 M⁻¹ in assay [2], 141000 M⁻¹ in assay [3] and 189000 M⁻¹ in assay [4].

Consider B2, for which the dH in assay [5] was 8.39 ± 1.15 kcal/mol.

Values taken from paper PMC5653362, “Formation of the chaperonin complex studied by 2D NMR spectroscopy” (PLoS ONE, 2017).
